Laboratory results published in article PMC3269530 (Journal of Molecular Biology, 2011).

Assays:
ArfA-c [1] = target: ArfA-c (Mycobacterium tuberculosis, UniProt P9WIU5); assay: biochemical; type: binding
ArfA-c [2] = type: binding, M. tuberculosis
[3] = tested on: ArfA (S302 amide proton, β3-α4 loop); assay: Saturation transfer difference NMR; type: binding, M. tuberculosis
[4] = type: binding, Mycobacterium tuberculosis, strain H37Rv; settings: qualitative

## CC(=O)N[C@H]1[C@@H](OP(=O)(O)OP(=O)(O)OC[C@H]2O[C@@H](n3ccc(=O)[nH]c3=O)[C@H](O)[C@@H]2O)O[C@H](CO)[C@@H](O)[C@@H]1O[C@H](C)C(=O)N[C@@H](C)C(=O)N[C@H](CCC(=O)N[C@@H](CCC[C@@H](N)C(=O)O)C(=O)N[C@H](C)C(=O)N[C@H](C)C(=O)O)C(=O)O [UMDP, uridine-5'-diphosphate–MurNAc–L-Ala–D-γ-Glu–m-DAP–D-Ala–D-Ala (Park's nucleotide)]
ArfA-c [1]
  Kd: ~1000 µM

## CC(=O)N[C@H]1C(OP(=O)(O)OP(=O)(O)OC[C@H]2O[C@@H](n3ccc(=O)[nH]c3=O)[C@H](O)[C@@H]2O)O[C@H](CO)[C@@H](O)[C@@H]1O[C@H](C)C(=O)N[C@@H](C)C(=O)N[C@H](CCC(=O)N[C@@H](CCCCN)C(=O)N[C@H](C)C(=O)N[C@H](C)C(=O)O)C(=O)O (stereo partly drawn) [UMKP, uridine-5'-diphosphate–MurNAc–L-Ala–D-γ-Glu–L-Lys–D-Ala–D-Ala]
ArfA-c [2]
  effect on the NMR spectrum of ArfA-c: no effect

## uridine-5'-diphosphate–MurNAc–L-Ala–D-γ-Glu–m-DAP–D-Ala– D-Ala [UMDP]
[3]
  proximity of S302 amide proton to MurNAc methyl protons: in some proximity
ArfA-c [2]
  Kd: ~1000 µM

B1: ArfA-bc: joint B and C domains of ArfA, residues 73–326 (protein)
chain: GASALSLSLLSISRSGNTVTLIGDFPDEAAKAALMTALNGLLAPGVNVIDQIHVDPVVRSLDFSSAEPVFTASVPIPDFGLKVERDTVTLTGTAPSSEHKDAVKRAATSTWPDMKIVNNIEVTGQAPPGPPASGPCADLQSAINAVTGGPIAFGNDGASLIPADYEILNRVADKLKACPDARVTINGYTDNTGSEGINIPLSAQRAKIVADYLVARGVAGDHIATVGLGSVNPIASNATPEGRAKNRRVEIVVN
GSSG vs DTT, Sypro orange DSF, Fig. 2a
  stabilization provided by the disulfide bond: about 1 °C

B2: ArfA-c: C domain of M. tuberculosis ArfA (Rv0899), residues 196–326 (protein)
chain: GQAPPGPPASGPCADLQSAINAVTGGPIAFGNDGASLIPADYEILNRVADKLKACPDARVTINGYTDNTGSEGINIPLSAQRAKIVADYLVARGVAGDHIATVGLGSVNPIASNATPEGRAKNRRVEIVVN
[4]
  affinity for polymeric M. tuberculosis peptidoglycan: strong (enough to precipitate the protein)
pH4, 15 µM protein, Sypro orange, 20-95°C, 0.03°C per second, Fig. 2d
  temperature of thermal unfolding, pH 4: 65.0 °C
pH7, 15 µM protein, Sypro orange, 20-95°C, 0.03°C per second, Fig. 2d
  temperature of thermal unfolding, pH 7: 63.2 °C
pH 7 to 4, Sypro orange DSF, Fig. 2d
  increase in temperature of thermal unfolding on lowering pH from 7 to 4: 2 °C
